Among the data in patent US20220280615A1 are percent of IgG in depots values, retold here.

Sequences and labels used below:
B1: iTEP56-IBD (designed binder)
chain: GVLPGVGGVLPGVGGVLPGVGGVLPGVGGVLPGVGGVLPGVGGVLPGVGGVLPGVGGVLPGVGGVLPGVGGVLPGVGGVLPGVGGVLPGVGGVLPGVGGVLPGVGGVLPGVGGVLPGVGGVLPGVGGVLPGVGGVLPGVGGVLPGVGGVLPGVGGVLPGVGGVLPGVGGVLPGVGGVLPGVGGVLPGVGGVLPGVGGVLPGVGGVLPGVGGVLPGVGGVLPGVGGVLPGVGGVLPGVGGVLPGVGGVLPGVGGVLPGVGGVLPGVGGVLPGVGGVLPGVGGVLPGVGGVLPGVGGVLPGVGGVLPGVGGVLPGVGGVLPGVGGVLPGVGGVLPGVGGVLPGVGGVLPGVGGVLPGVGGVLPGVGGVLPGVGGVLPGVGGVLPGVGGVLPGVGGVLPGVGGGGGSTTYKLVINGKTLKGETTTKAVDAETAEKAFKQYANDNGVDGVWTYDDATKTFTVTE
B2: iTEP28-IBD (designed binder)
chain: GVLPGVGGVLPGVGGVLPGVGGVLPGVGGVLPGVGGVLPGVGGVLPGVGGVLPGVGGVLPGVGGVLPGVGGVLPGVGGVLPGVGGVLPGVGGVLPGVGGVLPGVGGVLPGVGGVLPGVGGVLPGVGGVLPGVGGVLPGVGGVLPGVGGVLPGVGGVLPGVGGVLPGVGGVLPGVGGVLPGVGGVLPGVGGVLPGVGGGGGSTTYKLVINGKTLKGETTTKAVDAETAEKAFKQYANDNGVDGVWTYDDATKTFTVTE
B3: iTEP112-IBD (designed binder)
chain: GVLPGVGGVLPGVGGVLPGVGGVLPGVGGVLPGVGGVLPGVGGVLPGVGGVLPGVGGVLPGVGGVLPGVGGVLPGVGGVLPGVGGVLPGVGGVLPGVGGVLPGVGGVLPGVGGVLPGVGGVLPGVGGVLPGVGGVLPGVGGVLPGVGGVLPGVGGVLPGVGGVLPGVGGVLPGVGGVLPGVGGVLPGVGGVLPGVGGVLPGVGGVLPGVGGVLPGVGGVLPGVGGVLPGVGGVLPGVGGVLPGVGGVLPGVGGVLPGVGGVLPGVGGVLPGVGGVLPGVGGVLPGVGGVLPGVGGVLPGVGGVLPGVGGVLPGVGGVLPGVGGVLPGVGGVLPGVGGVLPGVGGVLPGVGGVLPGVGGVLPGVGGVLPGVGGVLPGVGGVLPGVGGVLPGVGGVLPGVGGVLPGVGGVLPGVGGVLPGVGGVLPGVGGVLPGVGGVLPGVGGVLPGVGGVLPGVGGVLPGVGGVLPGVGGVLPGVGGVLPGVGGVLPGVGGVLPGVGGVLPGVGGVLPGVGGVLPGVGGVLPGVGGVLPGVGGVLPGVGGVLPGVGGVLPGVGGVLPGVGGVLPGVGGVLPGVGGVLPGVGGVLPGVGGVLPGVGGVLPGVGGVLPGVGGVLPGVGGVLPGVGGVLPGVGGVLPGVGGVLPGVGGVLPGVGGVLPGVGGVLPGVGGVLPGVGGVLPGVGGVLPGVGGVLPGVGGVLPGVGGVLPGVGGVLPGVGGVLPGVGGVLPGVGGVLPGVGGVLPGVGGVLPGVGGVLPGVGGVLPGVGGVLPGVGGVLPGVGGVLPGVGGGGGSTTYKLVINGKTLKGETTTKAVDAETAEKAFKQYANDNGVDGVWTYDDATKTFTVTE

The assay has as its target Human IgG (polyclonal, Innovative Research) (human). The experiment in a line: depot trapping: polypeptide mixed with fluorescein-labeled human IgG (1 mg/mL), 37 °C, centrifuged, pellet fluorescence; molar ratio 8 or higher.
Turning to B1, the percent of IgG in depots amounted to 90%.
As to B2, the percent of IgG in depots was 55%.
Regarding B3, the percent of IgG in depots is 90%.
